According to paper PMC4791469:

Assays:
[1] = target: Chlamydomonas [FeFe]-hydrogenase HYDA1 (CrHYDA1) (Chlamydomonas reinhardtii)
[2] = target: Chlamydomonas ferredoxin:NAD(P) reductase I (CrFNR1) (Chlamydomonas reinhardtii) (UniProt P53991)
Sequence of UniProt P53991 (P53991 36-354): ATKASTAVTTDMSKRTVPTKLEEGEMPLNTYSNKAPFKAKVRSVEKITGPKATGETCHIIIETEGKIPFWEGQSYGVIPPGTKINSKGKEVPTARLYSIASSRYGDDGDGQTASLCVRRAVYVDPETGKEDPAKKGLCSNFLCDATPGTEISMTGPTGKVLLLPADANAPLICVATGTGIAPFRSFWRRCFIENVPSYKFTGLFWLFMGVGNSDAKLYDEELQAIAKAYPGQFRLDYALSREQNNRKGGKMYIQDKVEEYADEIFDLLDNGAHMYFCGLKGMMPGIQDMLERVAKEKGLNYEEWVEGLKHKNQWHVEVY

## Chlamydomonas reinhardtii ferredoxin 1 (CrFDX1), mature, tag cleaved (natural protein)
[1]
  hydrogen photo-production rate (thylakoids, 100 nM HYDA1, light, gas chromatography): 489
[2]
  Km for the ferredoxin in FNR1-catalysed NADPH photo-production (thylakoids, 0.5 μM FNR1, varied FDX, Lineweaver-Burk): 0.4 µM
  catalytic efficiency kcat/Km of FNR1-catalysed NADPH photo-production with this ferredoxin: 1.7e+09 M⁻¹ s⁻¹

## Chlamydomonas reinhardtii ferredoxin 2 (CrFDX2), mature, wild type, tag cleaved (natural protein)
[1]
  hydrogen photo-production rate (thylakoids, 100 nM HYDA1, light, gas chromatography): 86
[2]
  Km for the ferredoxin in FNR1-catalysed NADPH photo-production (thylakoids, 0.5 μM FNR1, varied FDX, Lineweaver-Burk): 0.18 µM
  catalytic efficiency kcat/Km of FNR1-catalysed NADPH photo-production with this ferredoxin: 3.5e+09 M⁻¹ s⁻¹

## CrFDX2 (M62F) (natural protein)
[1]
  hydrogen photo-production rate (thylakoids, 100 nM HYDA1, light, gas chromatography) (µmol H2/µg Chl/h): 150
[2]
  Km for the ferredoxin in FNR1-catalysed NADPH photo-production (thylakoids, 0.5 μM FNR1, varied FDX, Lineweaver-Burk): 0.69 µM

## CrFDX2 (M62F/∇95Y) (natural protein)
[1]
  hydrogen photo-production rate (thylakoids, 100 nM HYDA1, light, gas chromatography): 264
[2]
  Km for the ferredoxin in FNR1-catalysed NADPH photo-production (thylakoids, 0.5 μM FNR1, varied FDX, Lineweaver-Burk): 3.44 µM

## CrFDX2 (∇95Y) (natural protein)
[1]
  hydrogen photo-production rate (thylakoids, 100 nM HYDA1, light, gas chromatography): 134
[2]
  Km for the ferredoxin in FNR1-catalysed NADPH photo-production (thylakoids, 0.5 μM FNR1, varied FDX, Lineweaver-Burk): 0.38 µM
